We go through 59 substances from patent publication US20230357354A1, “CD38-BINDING CD31 PEPTIDES AND USES THEREOF” (ENCEFA, priority 2020, published 2023).

For the test, the target named is recombinant His-tagged CD38 (Homo sapiens, UniProt P28907). The experiment in a line: Pepscan-based ELISA of His-tagged CD38 on CD31 peptide arrays. In kind it is binding. To be noted: for Value (binding intensity of His-tagged CD38), BET conformational peptide array: mimic type BET (β-turn mimic, mP2 CLIPS); for Value (binding intensity of His-tagged CD38), BET conformational peptide array / Value (binding intensity of His-tagged CD38), LOOP7 conformational peptide array / Value (binding intensity of His-tagged CD38), LOOP15 conformational peptide array: sample with the highest signal; for Value (binding intensity of His-tagged CD38), LOOP7 conformational peptide array: mimic type LOOP7 (single loop, mP2 CLIPS); for Value (binding intensity of His-tagged CD38), LOOP15 conformational peptide array: mimic type LOOP15 (single loop, mP2 CLIPS); for Value (binding intensity of His-tagged CD38), LIN15 linear peptide array: mimic type LIN15, sample with the highest signal (His-tagged CD38 9 or 20 µg/mL). An excerpt:
Different sets of sCD31 peptides were synthesized according to the following designs. Note that actual order of peptides on mini-cards in some was randomized. • Set #1 • Mimic type: linear • Label: LIN15 • Linear peptides of 15 consecutive amino acid residues in length, derived from the target sequence of sCD31 with an offset of […]. • Set #2 • Mimic type: single loop (mP2 CLIPS) • Label: LOOP7 • Constrained peptides of 9 amino acid residues in length. On positions 2-8 are incorporated 7 consecutive amino acid residues derived from the target sequence of sCD31 with an offset of 1.3 residues. Cys residues were inserted on positions 1 and 9 and joined by mP2 CLIPS in order to create a loop mimic. Native Cys residues, if present, were replaced by Ser residues. • Set #3 • Mimic type: single loop, (mP2 CLIPS) • Label: LOOP15 • Constrained peptides of 17 amino acid residues in length. On positions 2-16 are incorporated 15 consecutive amino acid residues derived from the target sequence of sCD31 with an offset of […]. Cys residues were inserted on positions 1 and 17 and joined by mP2 CLIPS in order to create a loop mimic. Native Cys residues, if present, were replaced by Ser residues. • Set #4 • Mimic type: β-turn peptide mimics (mP2 CLIPS) • Label: BET • β-turn peptide mimics of 22 amino acid residues in length. On positions 2-21 are incorporated 20 consecutive amino acid residues derived from the target sequence of sCD31 with an offset of 1.3 residues. Residues on positions 11 and 12 are replaced by a Pro-Gly motif in order to induce the β-turn formation. Cys residues were inserted on positions 1 and 22 and joined by mP2 CLIPS in order to stabilize the mimic. Native Cys residues, if present, were replaced by Ser residues.
To reconstruct epitopes of sCD31, a library of peptide-based peptide mimics was synthesized using Fmoc-based solid-phase peptide synthesis. An amino functionalized polypropylene support was obtained by grafting with a hydrophilic polymer formulation, followed by reaction with t-butyloxycarbonyl-hexamethylenediamine (BocHMDA) using dicyclohexylcarbodiimide (DCC) with N-hydroxybenzotriazole (HOBt) and subsequent cleavage of the Boc-groups using trifluoroacetic acid (TFA).
Standard Fmoc-peptide synthesis was used to synthesize peptides on the amino-functionalized solid support by custom modified JANUS liquid handling stations (Perkin Elmer).
Synthesis of structural mimics was done using CLIPS technology. CLIPS technology allows to structure peptides into single loops, double loops, triple loops, sheet-like folds, helix-like folds, and combinations thereof. CLIPS templates are coupled to cysteine residues. The side-chains of multiple cysteines in the peptides are coupled to one or two CLIPS templates. For example, a 0.5 mM solution of the P2 CLIPS (2,6-bis(bromomethyl)pyridine) is dissolved in ammonium bicarbonate (20 mM, pH 7.8)/acetonitrile (1:3, v/v). This solution is added onto the peptide arrays. The CLIPS template binds to side-chains of two cysteines as present in the solid-phase bound peptides of the peptide-arrays (455 wells plate with 3-µL wells). The peptide arrays are gently shaken in the solution for 30 to 60 minutes while completely covered in solution.
Finally, the peptide arrays are washed extensively with excess of H2O and sonicated in disrupt-buffer containing 1% SDS / 0.1 % 2,2′-(ethylenedioxy)diethanethiol in PBS (pH 7.2) at 70° C. for 30 minutes, followed by sonication in H2O for another 45 minutes.
The binding of the sample (recombinant His-tagged CD38; 9 µg/mL and 20 µg/mL) to each of the synthesized peptides was tested in a pepscan-based ELISA. The peptide arrays were incubated with primary sample solution (overnight at 4° C.). […]
(In general: ELISA stands for enzyme-linked immunosorbent assay.)

“271 (CKDDVLFYNIPGMKSTESYFIC) [compound 271]”: the “Value (binding intensity of His-tagged CD38), BET conformational peptide array” value (“Value … BET conformational peptide array” for short) worked out at 695 mAU.

Consider 217 (CVQISILSC) [compound 217], for which the “Value (binding intensity of His-tagged CD38), LOOP7 conformational peptide array” value (“Value … LOOP7 conformational peptide array” below) worked out at 416 mAU.

On to 179 (CLFYKDDVC) [compound 179], for which the “Value … LOOP7 conformational peptide array” value is 604 mAU.

In the case of 220 (CGEDIVLQC) [compound 220], the “Value … LOOP7 conformational peptide array” value was found to be 442 mAU.

As for 263 (CSKVSSIVVNITELFSC) [compound 263], the “Value (binding intensity of His-tagged CD38), LOOP15 conformational peptide array” value (“Value … LOOP15 conformational peptide array” for short) is recorded as 593 mAU.

As to 208 (CRISYDAQC) [compound 208], the “Value … LOOP7 conformational peptide array” value was determined as 287 mAU.

Consider 101 (RISKVSSIVVNITEL) [compound 101], for which the “Value (binding intensity of His-tagged CD38), LIN15 linear peptide array” value (“Value … LIN15 linear peptide array” below) amounted to 572 mAU.

On to 253 (CNFVILEFPVEEQDRVC) [compound 253], for which the “Value … LOOP15 conformational peptide array” value is 524 mAU.

As to 291 (CNFVILEFC) [compound 291], the “Value … LOOP7 conformational peptide array” value was found to be 1186 mAU.

Regarding 201 (CQEFPEIIC) [compound 201], the “Value … LOOP7 conformational peptide array” value amounted to 476 mAU.

For the substance “9 (CRDQNFVILEFPVEEQC; Human sCD31 peptide) [compound 9]”, the “Value … LOOP15 conformational peptide array” value is listed as 1110 mAU.

Turning to “267 (CSHVKPQHQMPGYKDDVLFYNC) [compound 267]”, the “Value … BET conformational peptide array” value is given as 662 mAU.

Consider 104 (KVSSIVVNITELFSK) [compound 104], for which the “Value … LIN15 linear peptide array” value was 155 mAU.

With “269 (CKPQHQMLFYPGDVLFYNISSC) [compound 269]”, the “Value … BET conformational peptide array” value turned out to be 641 mAU.

As to “274 (CKMVKLKREKPGRDQNFVILEC) [compound 274]”, the “Value … BET conformational peptide array” value was found to be 897 mAU.

With 255 (CSTIQVTHLAQEFPEIC) [compound 255], the “Value … LOOP15 conformational peptide array” value came to 320 mAU.

On to 254 (CFVILEFPVEEQDRVLC) [compound 254], for which the “Value … LOOP15 conformational peptide array” value was 550 mAU.

Regarding 38 (LFYKDDVLFYNISSM) [compound 38], the “Value … LIN15 linear peptide array” value came to 383 mAU.

Turning to 223 (CQEGEYYSC) [compound 223], the “Value … LOOP7 conformational peptide array” value worked out at 619 mAU.

188 (CFIPEVRIC) [compound 188]: the “Value … LOOP7 conformational peptide array” value is reported as 414 mAU.

174 (CTLQSFADC) [compound 174]: the “Value … LOOP7 conformational peptide array” value came out at 427 mAU.

Regarding 33 (HQMLFYKDDVLFYNI) [compound 33], the “Value … LIN15 linear peptide array” value is on record as 441 mAU.

Take 74 (KREKNSRDQNFVILE) [compound 74]: the “Value … LIN15 linear peptide array” value was found to be 440 mAU.

Take “5 (CSTESYFIC; Human sCD31 peptide) [compound 5]”: the “Value … LOOP7 conformational peptide array” value is on record as 668 mAU.

In the case of 215 (CDEVQISIC) [compound 215], the “Value … LOOP7 conformational peptide array” value is on record as 378 mAU.

On to 258 (CQVTHLAQEFPEIIIQC) [compound 258], for which the “Value … LOOP15 conformational peptide array” value is reported as 617 mAU.

For the substance “268 (CVKPQHQMLFPGDDVLFYNISC) [compound 268]”, the “Value … BET conformational peptide array” value amounted to 792 mAU.

242 (CKSTESYFIPEVRIYDC) [compound 242]: the “Value … LOOP15 conformational peptide array” value is on record as 528 mAU.

As for 244 (CTESYFIPEVRIYDSGC) [compound 244], the “Value … LOOP15 conformational peptide array” value amounted to 465 mAU.

With “265 (CTTSHVKPQHPGLFYKDDVLFC) [compound 265]”, the “Value … BET conformational peptide array” value is 679 mAU.

Take 195 (CDQNFVILC) [compound 195]: the “Value … LOOP7 conformational peptide array” value is given as 628 mAU.

With “272 (CDDVLFYNISPGKSTESYFIPC) [compound 272]”, the “Value … BET conformational peptide array” value is reported as 524 mAU.

Turning to 210 (CYDAQFEVC) [compound 210], the “Value … LOOP7 conformational peptide array” value is given as 628 mAU.

Consider 240 (CSSMKSTESYFIPEVRC) [compound 240], for which the “Value … LOOP15 conformational peptide array” value is 343 mAU.

For “6 (NSRDQNFVILEFPVE; Human sCD31 peptide) [compound 6]”, the “Value … LIN15 linear peptide array” value is recorded as 1230 mAU.

On to 191 (CRIYDSGTC) [compound 191], for which the “Value … LOOP7 conformational peptide array” value was determined as 395 mAU.

Take 181 (CKDDVLFYC) [compound 181]: the “Value … LOOP7 conformational peptide array” value came out at 579 mAU.

As to 77 (KNSRDQNFVILEFPV) [compound 77], the “Value … LIN15 linear peptide array” value was 502 mAU.

As to 204 (CSIVVNITC) [compound 204], the “Value … LOOP7 conformational peptide array” value worked out at 387 mAU.

Take 228 (CVKPQHQMLFYKDDVLC) [compound 228]: the “Value … LOOP15 conformational peptide array” value turned out to be 411 mAU.

For the substance 213 (CPTEDVEYC) [compound 213], the “Value … LOOP7 conformational peptide array” value was determined as 407 mAU.

On to 248 (CREKNSRDQNFVILEFC) [compound 248], for which the “Value … LOOP15 conformational peptide array” value amounted to 1073 mAU.

On to 123 (PAVFKDNPTEDVEYQ) [compound 123], for which the “Value … LIN15 linear peptide array” value stood at 333 mAU.

For 124 (VFKDNPTEDVEYQCV) [compound 124], the “Value … LIN15 linear peptide array” value is listed as 303 mAU.

As for “266 (CTSHVKPQHQPGFYKDDVLFYC) [compound 266]”, the “Value … BET conformational peptide array” value is 725 mAU.

On to “276 (CLKREKNSRDPGFVILEFPVEC) [compound 276]”, for which the “Value … BET conformational peptide array” value was 817 mAU.

Consider 226 (CYYSTAFNC) [compound 226], for which the “Value … LOOP7 conformational peptide array” value is 477 mAU.

For 257 (CIQVTHLAQEFPEIIIC) [compound 257], the “Value … LOOP15 conformational peptide array” value worked out at 797 mAU.

Consider 225 (CGEYYSTAC) [compound 225], for which the “Value … LOOP7 conformational peptide array” value was 552 mAU.

For the substance “270 (CYKDDVLFYNPGSMKSTESYFC) [compound 270]”, the “Value … BET conformational peptide array” value amounted to 378 mAU.

As for 203 (CSSIVVNIC) [compound 203], the “Value … LOOP7 conformational peptide array” value was 364 mAU.

Regarding 193 (CAEYQVLVC) [compound 193], the “Value … LOOP7 conformational peptide array” value is on record as 508 mAU.

Take 243 (CSTESYFIPEVRIYDSC) [compound 243]: the “Value … LOOP15 conformational peptide array” value is on record as 660 mAU.

In the case of 36 (MLFYKDDVLFYNISS) [compound 36], the “Value … LIN15 linear peptide array” value is listed as 451 mAU.

With 238 (CNISSMKSTESYFIPEC) [compound 238], the “Value … LOOP15 conformational peptide array” value was 478 mAU.

For the substance 252 (CQNFVILEFPVEEQDRC) [compound 252], the “Value … LOOP15 conformational peptide array” value is 729 mAU.

Take 122 (DPAVFKDNPTEDVEY) [compound 122]: the “Value … LIN15 linear peptide array” value is 402 mAU.

As for 202 (CFPEIIIQC) [compound 202], the “Value … LOOP7 conformational peptide array” value is given as 596 mAU.

For the substance 172 (EQEGEYYCTAFNRAN) [compound 172], the “Value … LIN15 linear peptide array” value stood at 340 mAU.
